From article PMC10397247

Key:
Assay in all cases: two-hybrid library CCNG1;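 also: natural log of median RNA to DNA barcode read ratio; higher means stronger binding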
4H741-bA = target: T1, 4H741-bA
T1 chain: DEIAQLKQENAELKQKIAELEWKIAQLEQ

4H2134-bA = target: T2, 4H2134-bA
T2 chain: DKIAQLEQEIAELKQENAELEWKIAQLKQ

4H2143-bA = target: T3, 4H2143-bA
T3 chain: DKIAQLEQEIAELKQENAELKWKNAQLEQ

4H3277-bA = target: T4, 4H3277-bA
T4 chain: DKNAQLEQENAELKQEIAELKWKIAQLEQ

4H182-bA = target: T5, 4H182-bA
T5 chain: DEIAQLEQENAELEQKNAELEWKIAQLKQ

4H2915-bA = target: T6, 4H2915-bA
T6 chain: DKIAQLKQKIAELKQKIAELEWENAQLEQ

4H2223-bA = target: T7, 4H2223-bA
T7 chain: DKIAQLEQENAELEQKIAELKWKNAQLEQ

4H2438-bA = target: T8, 4H2438-bA
T8 chain: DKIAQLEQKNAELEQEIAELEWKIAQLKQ

4H2473-bA = target: T9, 4H2473-bA
T9 chain: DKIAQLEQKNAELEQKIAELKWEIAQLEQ

4H492-bA = target: T10, 4H492-bA
T10 chain: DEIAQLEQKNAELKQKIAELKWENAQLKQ

4H2839-bA = target: T11, 4H2839-bA
T11 chain: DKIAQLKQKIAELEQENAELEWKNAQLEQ

4H477-bA = target: T12, 4H477-bA
T12 chain: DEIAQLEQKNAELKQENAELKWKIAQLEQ

4H2717-bA = target: T13, 4H2717-bA
T13 chain: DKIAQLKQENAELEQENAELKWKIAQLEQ

4H319-bA = target: T14, 4H319-bA
T14 chain: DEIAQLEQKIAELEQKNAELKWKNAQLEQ

4H40-bA = target: T15, 4H40-bA
T15 chain: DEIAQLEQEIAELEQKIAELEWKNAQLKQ

4H348-bA = target: T16, 4H348-bA
T16 chain: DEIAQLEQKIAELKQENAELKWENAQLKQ

4H3057-bA = target: T17, 4H3057-bA
T17 chain: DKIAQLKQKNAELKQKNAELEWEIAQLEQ

4H2503-bA = target: T18, 4H2503-bA
T18 chain: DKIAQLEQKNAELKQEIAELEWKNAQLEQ

4H2588-bA = target: T19, 4H2588-bA
T19 chain: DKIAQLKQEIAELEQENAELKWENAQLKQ

4H2692-bA = target: T20, 4H2692-bA
T20 chain: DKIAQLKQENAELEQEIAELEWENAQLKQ

For DEIAQLEQENAELEQKNAELEWKIAQLKQ [4H182-bA], the interaction score (4H741-bA) was -0.573, the interaction score (4H2134-bA) was -0.497 and the interaction score (4H2143-bA) was -0.647. The interaction score (4H3277-bA) was -0.0929, the interaction score (4H182-bA) was -0.0793 and the interaction score (4H2915-bA) was 0.668. For the same binder, the interaction score (4H2223-bA) was -0.693, the interaction score (4H2438-bA) was -0.622 and the interaction score (4H2473-bA) was -0.132. For the same binder, the interaction score (4H492-bA) was -0.651, the interaction score (4H2839-bA) was 0.49 and the interaction score (4H477-bA) was -0.804. It also gave an interaction score (4H2717-bA) of 0.261, an interaction score (4H319-bA) of -0.41 and an interaction score (4H40-bA) of -1.06. The interaction score (4H348-bA) was -1.35, the interaction score (4H3057-bA) was 2.13 and the interaction score (4H2503-bA) was -0.357. For the same binder, the interaction score (4H2588-bA) was 0.365 and the interaction score (4H2692-bA) was 0.136.
